Experimental data reported in patent publication US20240150445A1 (DUKE UNIVERSITY, published 2024).

Target: Env 10.17 gp120 (HIV-1)
Test: direct-binding ELISA (OD450) on CH848.d0949.10.17 gp120 [panel A]

B1: DH270.IA4 (antibody, V domains shown)
VH: QVQLVQSGAEVKKPGASVKVSCKASGYTFTDYYIHWVRQAPGQGLEWMGWINPNTGRTNYAQKFQGRVTMTRDTSISTAYMELSRLRSDDTAVYYCARGGWIGLYYDSSGYPNFDYWGQGTLVTVSS
VL: QSALTQPASVSGSPGQSITISCTGTSYDVGSYNLVSWYQQHPGKAPKLMIYEVSKRPSGVSNRFSGSKSGNTASLTISGLQAEDEADYYCCSYAGSSTVIFGGGTKLTVL
notes: Inferred intermediate, recombinant IgG; also called DH270.I4
EC50 (read off the curve): ~2 µg/mL
